The target in assay [1] is T1, HER3 (human, UniProt P21860 20-643, limits assumed).
T1 construct: also called HER3抗原; HER3蛋白
In words: ProteOn XPR36 Protein Interaction Array System (SPR).

Assay [2] concerns the target T2, HER3-ECD融合蛋白 (human).
T2 construct: also called HER3-ECD fusion protein
In words: competition ELISA: Trx-HRG coated (10 μg/ml), HER3-ECD fusion protein 1 μg/ml pre-incubated with antibody, anti-hGH detection.

Substitutions are numbered along the chain they refer to.

T1 sequence (P21860 20-643 limits assumed): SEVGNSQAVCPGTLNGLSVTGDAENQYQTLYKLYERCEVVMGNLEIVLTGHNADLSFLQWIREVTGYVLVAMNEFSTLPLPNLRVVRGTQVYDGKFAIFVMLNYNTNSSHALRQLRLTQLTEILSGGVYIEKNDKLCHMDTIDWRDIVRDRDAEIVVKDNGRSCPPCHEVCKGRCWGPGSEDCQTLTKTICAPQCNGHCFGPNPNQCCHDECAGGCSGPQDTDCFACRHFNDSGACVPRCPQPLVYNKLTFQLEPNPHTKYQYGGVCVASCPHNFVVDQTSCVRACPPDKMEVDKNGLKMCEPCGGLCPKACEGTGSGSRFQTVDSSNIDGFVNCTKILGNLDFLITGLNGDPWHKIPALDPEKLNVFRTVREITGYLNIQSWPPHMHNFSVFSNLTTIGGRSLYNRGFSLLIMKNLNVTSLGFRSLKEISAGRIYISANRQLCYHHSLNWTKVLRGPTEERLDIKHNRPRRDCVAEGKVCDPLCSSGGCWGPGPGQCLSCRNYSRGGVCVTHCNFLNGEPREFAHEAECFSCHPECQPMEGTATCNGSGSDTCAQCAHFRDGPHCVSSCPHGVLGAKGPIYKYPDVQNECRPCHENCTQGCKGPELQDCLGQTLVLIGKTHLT

B1: HER3鼠源单克隆抗体993 (antibody, V domains shown)
VH: EVKLVESGGGLVKPGGSLKLSCAASGFTFSSYSLSWVRQTPEKRLEWVASITFGGTAYYSDSVKGRFTISRDNARNILYLQMSSLKSEDTAMYYCVRGDGYEDPMDYWGQGTSVTVSS
VL: DIVMTQTTVSLAVSLGQRATISCRASESVDSYGKSFMHWYQQKPGQPPKLLIYRASNLESGIPARFSGSGSRTDFTLTINPVEADDVSTYYCQQSNEDPYTFGGGTKLEIR
notes: Mouse monoclonal antibody from hybridoma ascites, purified on protein G; also called HER3抗体993
In the case of B1, the Kd (commonly the concentration at which binding is half-saturated) in assay [1] stood at 0.166 nM. Moreover, in assay [2], the IC50 (in general, the concentration that gives 50% inhibition) was determined as 0.3 nM.

B2: HER3鼠源单克隆抗体1044 (antibody, V domains shown)
VH: EVQLQQSGTELMKPGASVKISCKATGGTFSNYWIDWVKQRPGHGLEWIGEILPGSGGTDYNEKFKGKATFTADTSSNTAYMQLSSLTSEDSAVYYCARDDYDVFAYWGQGTLVTVSS
VL: DIVMTQAAFSNPVTLGTSASISCRSSKSLLHSNGITYLYWYLQKPGQSPQLLIYQMSNLASGVPDRFSSSGSGTDFTLRISRVEAEDVGVYYCAQNLELPWTFGGGTKLEIKR
notes: Mouse monoclonal antibody from hybridoma ascites, purified on protein G; also called HER3抗体1044
In turn, B2 had a Kd in assay [1] of 0.525 nM. The molecule also displayed an IC50 in assay [2] of 2.3 nM.

B3: HER3鼠源单克隆抗体927 (antibody, V domains shown)
VH: EVQLQQSGPELVKPGASVKISCKASGYSFTSYYIHWVKQRPGQGLEWIGWIFPRSGHTNYNEKFKGKATLTADTSSSTAYMQVSSLTSEDSAVYFCARSRDYYGTNAMDYWGQGTSVTVSS
VL: DIVMTQSPSSLTVTAGEKVTMSCKSSQSLFNSGNQKNYLTWYQQKPGQPPKLLIYWASTRESGVPDRFTGSGSGTDFTLTISSVQAEDLAVYYCQNDYSYPYTFGGGTKLEIKR
notes: Mouse monoclonal antibody from hybridoma ascites, purified on protein G; also called HER3抗体927
In assay [1], B3 showed a Kd of 4.13 nM. In addition, the IC50 in assay [2] was determined as 1.5 nM.

B4: HER3鼠源单克隆抗体1050 (antibody, V domains shown)
VH: B3 VH with E1Q, R54G, N59K, Y60C, K63N, G66A, V83L, T105S, M108V
VL: B3 VL with F30L, T69S
notes: Mouse monoclonal antibody from hybridoma ascites, purified on protein G; also called HER3抗体1050
Molecule B4 came in with a Kd in assay [1] of 5.83 nM. Besides, the half-inhibitory concentration (IC50) in assay [2] amounted to 2.8 nM.

The record behind these values is patent CN110642952A (SHANGHAI INST OF BIOLOGICAL PRODUCTS CO LTD, dated 2020).
